Data: patent US20250019450A1 (DIAGONAL THERAPEUTICS, published 2025)

Target: human IL-12 receptor (IL-12Rβ1 and IL-12Rβ2) on HEK-Blue IL-12 cells (human, UniProt P42701 24-662; Q99665 24-862)
Assay: cell-based or functional assay

Sequence of human IL-12 receptor (IL-12Rβ1 and IL-12Rβ2) on HEK-Blue IL-12 cells (Q99665 24-862, chain 2 of 2, other chains not shown): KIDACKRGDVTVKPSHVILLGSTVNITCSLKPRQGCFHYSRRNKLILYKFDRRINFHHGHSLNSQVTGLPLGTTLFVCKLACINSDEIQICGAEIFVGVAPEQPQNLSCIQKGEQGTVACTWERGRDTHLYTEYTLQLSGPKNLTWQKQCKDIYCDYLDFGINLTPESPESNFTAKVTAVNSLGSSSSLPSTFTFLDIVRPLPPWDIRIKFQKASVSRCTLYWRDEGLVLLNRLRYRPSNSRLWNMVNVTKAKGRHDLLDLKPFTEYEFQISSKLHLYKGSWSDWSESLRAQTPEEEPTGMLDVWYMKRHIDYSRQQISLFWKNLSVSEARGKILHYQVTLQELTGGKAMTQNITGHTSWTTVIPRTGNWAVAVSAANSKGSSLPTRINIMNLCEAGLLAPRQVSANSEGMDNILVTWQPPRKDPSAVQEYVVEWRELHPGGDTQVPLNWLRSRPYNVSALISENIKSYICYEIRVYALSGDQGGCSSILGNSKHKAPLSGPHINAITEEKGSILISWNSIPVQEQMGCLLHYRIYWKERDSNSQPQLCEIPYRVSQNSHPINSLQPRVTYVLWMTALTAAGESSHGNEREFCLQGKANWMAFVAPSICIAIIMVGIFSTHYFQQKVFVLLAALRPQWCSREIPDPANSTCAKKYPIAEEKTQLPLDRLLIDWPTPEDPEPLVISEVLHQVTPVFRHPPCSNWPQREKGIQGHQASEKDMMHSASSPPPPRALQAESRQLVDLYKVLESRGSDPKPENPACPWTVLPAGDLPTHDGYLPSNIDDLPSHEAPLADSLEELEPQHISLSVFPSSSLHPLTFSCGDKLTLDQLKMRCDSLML

Binder | Max Absorbance
DGL453 (bispecific antibody, V domains shown) V domain 1: QVQLQESGGALVQPGGSLRLSCVVSGFTSDYFAIGWFRQAPGKEREGVSCIGSSDGSTIYSDSVKGRFTISRDNAKNTVYLQMNSLKPEDTGVYYCALDRGRRTIIGYACYATMKYWGKGTPVTVEP V domain 2: QVQLVESGGGLVQPGGSLRLSCAASGFTFSNYAMSWIRQGPERGFEWVSRINSGGGTTSYADSVKGRFTISRDNAKNTLYLQMNSLKPEDTAVYYCAKHSHPDYSSNYYRPGQGTQVTVEP | 0.25
DGL415 (bispecific antibody, human IgG1, kappa) heavy 1: not shown heavy 2: QVQLVESGGGLVQAGGSLRLSCAASGRTFSRYRMGWFRQAPGKEREFVAAITKSGATTYDADSVKGRFTISRDNAKNTLYLQMNSLKPEDTAVYYCAASYHSNWWPKNADEYAYWGQGTQVTVEPKSSDKTHTCPPCPAPEAAGAPSVFLFPPKPKDTLMISRTPEVTCVVVDVSHEDPEVKFNWYVDGVEVHNAKTKPREEQYNSTYRVVSVLTVLHQDWLNGKEYKCKVSNKALPAPIEKTISKAKGQPREPQVCTLPPSRDELTKNQVSLSCAVKGFYPSDIAVEWESNGQPENNYKTTPPVLDSDGSFFLVSKLTVDKSRWQQGNVFSCSVMHEALHNRFTQKSLSLSPG light: not shown | 0.23
DGL400 (bispecific antibody, human IgG1, kappa) heavy 1: not shown heavy 2: QVQLVESGGGLVQAGGSLRLSCAASGRTFSRYRMGWFRQAPGKEREFVAAITKSGATTYDADSVKGRFTISRDNAKNTLYLQMNSLKPEDTAVYYCAASYHSNWWPKNADEYAYWGQGTQVTVEPKSSDKTHTCPPCPAPEAAGAPSVFLFPPKPKDTLMISRTPEVTCVVVDVSHEDPEVKFNWYVDGVEVHNAKTKPREEQYNSTYRVVSVLTVLHQDWLNGKEYKCKVSNKALPAPIEKTISKAKGQPREPQVCTLPPSRDELTKNQVSLSCAVKGFYPSDIAVEWESNGQPENNYKTTPPVLDSDGSFFLVSKLTVDKSRWQQGNVFSCSVMHEALHNRFTQKSLSLSPG light: DIQLTQSPSFLSASVGDRVTITCRASQGISSYLAWYQQKPGKAPKVLIYAASTLQSGVPSRFSGSGSGTEFTLTISSLLPEDFATYFCQQLHRYPYTFGQGAKLEIKRTVAAPSVFIFPPSDEQLKSGTASVVCLLNNFYPREAKVQWKVDNALQSGNSQESVTEQDSKDSTYSLSSTLTLSKADYEKHKVYACEVTHQGLSSPVTKSFNRGEC | 0.21
DGL440 (bispecific antibody, human IgG1, lambda) heavy 1: not shown heavy 2: QVQLVQPGAEVKKPGASVKVSCKASGYTFTGYYMHWVRQAPGQGLEWMGWINPKSGGTNYAQKFQGRVTMTRDTSISTAYMELTRLRSDDTAVYYCARDQGYGDYVLKHWGQGTLVTVSSASTKGPSVFPLAPSSKSTSGGTAALGCLVKDYFPEPVTVSWNSGALTSGVHTFPAVLQSSGLYSLSSVVTVPSSSLGTQTYICNVNHKPSNTKVDKKVEPKSCDKTHTCPPCPAPEAAGAPSVFLFPPKPKDTLMISRTPEVTCVVVDVSHEDPEVKFNWYVDGVEVHNAKTKPREEQYNSTYRVVSVLTVLHQDWLNGKEYKCKVSNKALPAPIEKTISKAKGQPREPQVCTLPPSRDELTKNQVSLSCAVKGFYPSDIAVEWESNGQPENNYKTTPPVLDSDGSFFLVSKLTVDKSRWQQGNVFSCSVMHEALHNRFTQKSLSLSPG light: SYVLTQPPSVSVAPGQTARITCGGDNIGSKSVHWYQQKPGQAPVPVVYDDSDRPSGIPERFSGSNSGNTATLTISRVEAGDEADYYCQVWDSSSDHVVFGGGTKLTVLGQPKAAPSVTLFPPSSEELQANKATLVCLISDFYPGAVTVAWKADSSPVKAGVETTTPSKQSNNKYAASSYLSLTPEQWKSHRSYSCQVTHEGSTVEKTVAPTECS | 0.22
DGL443 (bispecific antibody, human IgG1, lambda) heavy 1: not shown heavy 2: QVTLRESGPALVKPTQTLTLTCTFSGFSLSTSGMCVSWIRQPPGKALEWLALIYWDDDKYYSTSLKTRLTISKDTSKNQVVLTMTNMDPVDTATYYCARMRRGIEAFDIWGQGTMVTVFSASTKGPSVFPLAPSSKSTSGGTAALGCLVKDYFPEPVTVSWNSGALTSGVHTFPAVLQSSGLYSLSSVVTVPSSSLGTQTYICNVNHKPSNTKVDKKVEPKSCDKTHTCPPCPAPEAAGAPSVFLFPPKPKDTLMISRTPEVTCVVVDVSHEDPEVKFNWYVDGVEVHNAKTKPREEQYNSTYRVVSVLTVLHQDWLNGKEYKCKVSNKALPAPIEKTISKAKGQPREPQVCTLPPSRDELTKNQVSLSCAVKGFYPSDIAVEWESNGQPENNYKTTPPVLDSDGSFFLVSKLTVDKSRWQQGNVFSCSVMHEALHNRFTQKSLSLSPG light: QSVLTQPPSVSGAPGQRVTISCTGSSSNIGAGYDVHWYQQLPGTAPKLLIFGYSNRPSGVPVRFSGSKSGTSASLAITGLLAEDEADFYCQSFDISLTGWVFGGGTKLTVLGQPKAAPSVTLFPPSSEELQANKATLVCLISDFYPGAVTVAWKADSSPVKAGVETTTPSKQSNNKYAASSYLSLTPEQWKSHRSYSCQVTHEGSTVEKTVAPTECS | 0.24
DGL525 (bispecific antibody, V domains shown) V domain 1: EVQLVESGGGLVQPGGSLRLFCAASRSIFNINIMGWYRQAPGKQREWLASITSGGSTFYADSVKDRFTISRDSVKNTVYLQMNSLKPEDTAAYYCNRYRSVPLNTVYPWGQGTLVTVEP V domain 2: QVQLVESGGGLVQAGGSLRLSCAASGRTFSSYAMGWFRQAPGKEREFVSAISWSGLSTYYVESVQGRFTISRDNAKNTVYLQMNSLKPEDTAVYYCAASRIYTNYVARSYEYDDWGQGTQVTVEP | 0.21
DGL442 (bispecific antibody, human IgG1, lambda) heavy 1: not shown heavy 2: QVHLQESGPGLVKPSETLSLTCTVSGGSISYYYWNWIRQPPGKGLEWIASIYNSGNINYNPSLKSRVTISVDTSKNQFSLKLTSVTAADTAVYYCARGGYSYGYFDNWGQGILVTVSSASTKGPSVFPLAPSSKSTSGGTAALGCLVKDYFPEPVTVSWNSGALTSGVHTFPAVLQSSGLYSLSSVVTVPSSSLGTQTYICNVNHKPSNTKVDKKVEPKSCDKTHTCPPCPAPEAAGAPSVFLFPPKPKDTLMISRTPEVTCVVVDVSHEDPEVKFNWYVDGVEVHNAKTKPREEQYNSTYRVVSVLTVLHQDWLNGKEYKCKVSNKALPAPIEKTISKAKGQPREPQVCTLPPSRDELTKNQVSLSCAVKGFYPSDIAVEWESNGQPENNYKTTPPVLDSDGSFFLVSKLTVDKSRWQQGNVFSCSVMHEALHNRFTQKSLSLSPG light: SYELTQPPSVSVSPGQTASITCSGRELGNKYAYWYQQKPGQSPVLVIYEDYKRPSGIPERFSGSNSGNTATLTISGTQAMDEADYYCQAWDSSTVIFGGGTKLTVLGQPKAAPSVTLFPPSSEELQANKATLVCLISDFYPGAVTVAWKADSSPVKAGVETTTPSKQSNNKYAASSYLSLTPEQWKSHRSYSCQVTHEGSTVEKTVAPTECS | 0.22
DGL430 (bispecific antibody, human IgG1, lambda) heavy 1: not shown heavy 2: QVHLQESGPGLVKPSETLSLTCTVSGGSISYYYWNWIRQPPGKGLEWIASIYNSGNINYNPSLKSRVTISVDTSKNQFSLKLTSVTAADTAVYYCARGGYSYGYFDNWGQGILVTVSSASTKGPSVFPLAPSSKSTSGGTAALGCLVKDYFPEPVTVSWNSGALTSGVHTFPAVLQSSGLYSLSSVVTVPSSSLGTQTYICNVNHKPSNTKVDKKVEPKSCDKTHTCPPCPAPEAAGAPSVFLFPPKPKDTLMISRTPEVTCVVVDVSHEDPEVKFNWYVDGVEVHNAKTKPREEQYNSTYRVVSVLTVLHQDWLNGKEYKCKVSNKALPAPIEKTISKAKGQPREPQVCTLPPSRDELTKNQVSLSCAVKGFYPSDIAVEWESNGQPENNYKTTPPVLDSDGSFFLVSKLTVDKSRWQQGNVFSCSVMHEALHNRFTQKSLSLSPG light: SYELTQPPSVSVSPGQTASITCSGRELGNKYAYWYQQKPGQSPVLVIYEDYKRPSGIPERFSGSNSGNTATLTISGTQAMDEADYYCQAWDSSTVIFGGGTKLTVLGQPKAAPSVTLFPPSSEELQANKATLVCLISDFYPGAVTVAWKADSSPVKAGVETTTPSKQSNNKYAASSYLSLTPEQWKSHRSYSCQVTHEGSTVEKTVAPTECS | 0.21
DGL425 (bispecific antibody, human IgG1, kappa) heavy 1: not shown heavy 2: EVQLVQSGTEVKKPGESLKISCKGSGYSFTSYWIGWVRQMPGKGLEWMGNIYPGDSDTRYSPSFQGHVTISADKSISTAYLQWSSLKASDTAMYYCARRGGGYWGQGTLVTVSSASTKGPSVFPLAPSSKSTSGGTAALGCLVKDYFPEPVTVSWNSGALTSGVHTFPAVLQSSGLYSLSSVVTVPSSSLGTQTYICNVNHKPSNTKVDKKVEPKSCDKTHTCPPCPAPEAAGAPSVFLFPPKPKDTLMISRTPEVTCVVVDVSHEDPEVKFNWYVDGVEVHNAKTKPREEQYNSTYRVVSVLTVLHQDWLNGKEYKCKVSNKALPAPIEKTISKAKGQPREPQVCTLPPSRDELTKNQVSLSCAVKGFYPSDIAVEWESNGQPENNYKTTPPVLDSDGSFFLVSKLTVDKSRWQQGNVFSCSVMHEALHNRFTQKSLSLSPG light: not shown | 0.19
DGL547 (bispecific antibody, V domains shown) V domain 1: EVQLVESGGGLVQPGGSLRLSCAASGFTLDYYAIGWFRQAPGKEREGVSCISSSDRSTWYADSVKGRFTISRDNAKNTVYLQMHSLKPEDTAVYYCATPCYSDYDPEGYEYDYWGQGTQVTVEP V domain 2: QLQLVESGGGLVQAGGSLRLSCAASGLTFSGYTVGWFRQAPGKEREFVAAINWSSAYTYSEFVKGRFTISRDNAKNTVYLQMSSLKPEDTAVYYCAAQRSRTSWYASTAEAYDYWGQGTQVTVEP | 0.18
DGL604 (bispecific antibody, V domains shown) V domain 1: QVQLVESGGGLVQAGGSLRLSCAASRSISSFNEMAWYRQAPGEQRELVATIVSTVGFTNYADSVKGRFTISRDNAKNTVYLQMNSLKAEDTAVYYCNARRISTDYWGQGTQVTVEP V domain 2: QLQLVESGGGLVQAGGSLRLSCAASGRTFGIHGMGWFRQAPGKEREFAAAIRWSDGTTIHADSVKGRLTISRDNAKNTVYLQMNSLKPEDTAVYYCAATSNPQFGRNWYTVAAGVEYGYWGQGTQVTVEP | 0.23
DGL427 (bispecific antibody, human IgG1, kappa) heavy 1: not shown heavy 2: EVLLVESGGGLVKPGGSLRLSCAASGFTFSSYSMNWVRQAPGKGLEWVSSISSSSDYIHYADSVRGRFTISRDNAKNSLYLQMNSLRAEDTAVYYCARSELGFDYWGQGTLVTVSSASTKGPSVFPLAPSSKSTSGGTAALGCLVKDYFPEPVTVSWNSGALTSGVHTFPAVLQSSGLYSLSSVVTVPSSSLGTQTYICNVNHKPSNTKVDKKVEPKSCDKTHTCPPCPAPEAAGAPSVFLFPPKPKDTLMISRTPEVTCVVVDVSHEDPEVKFNWYVDGVEVHNAKTKPREEQYNSTYRVVSVLTVLHQDWLNGKEYKCKVSNKALPAPIEKTISKAKGQPREPQVCTLPPSRDELTKNQVSLSCAVKGFYPSDIAVEWESNGQPENNYKTTPPVLDSDGSFFLVSKLTVDKSRWQQGNVFSCSVMHEALHNRFTQKSLSLSPG light: DIQMTQSPSSVSASVGDRVTITCRASQGISIWLAWYQQKPGKAPKPLIYAASSLQSGVPSRFSGSGSGTDFTLTISSLQPEDFATYYCQQANSFPLTFGGGTKVEIKRTVAAPSVFIFPPSDEQLKSGTASVVCLLNNFYPREAKVQWKVDNALQSGNSQESVTEQDSKDSTYSLSSTLTLSKADYEKHKVYACEVTHQGLSSPVTKSFNRGEC | 0.25
